Assay results published in patent US20070020257A1.

Molecular target: integrins on cell surface of mucosae
Assay: cell-based or functional assay

| Binder | Titer against PAc (intranasal RGD-DUP given together with an excess of RGDS peptide as inhibitor) (titer (maximum serum dilution)) | Titer against PAc (serum of BALB/c mice after intranasal administration of RGD-DUP) (titer (maximum serum dilution)) | Titer against PAc (intranasal YIGSR-DUP given together with an excess of YIGSR peptide as inhibitor) (titer (maximum serum dilution)) | Titer against PAc (serum of BALB/c mice after intranasal administration of YIGSR-DUP) (titer (maximum serum dilution)) |
| --- | --- | --- | --- | --- |
| RGDTYEAALKQYEADLKKTYEAALKQYEADL [RGD-DUP (di unit peptide with the cell attachment motif RGD at the N-terminal region)] | 256 | 5070 | – | – |
| YIGSRTYEAALKQYEADLKKTYEAALKQYEADL [YIGSR-DUP (di unit peptide with the cell attachment motif YIGSR at the N-terminal region)] | – | – | 235 | 1200 |
